Experimental data taken from PMC10966351.

Molecular target: BlaC P107T (Mycobacterium tuberculosis)
Assay: crystal structure; sitting-drop vapor diffusion at 20°C, protein 10 mg/mL in 100 mM sodium phosphate buffer pH 6.4; four molecules in the asymmetric unit

Q: With BlaC P107T (enzyme) as the substance, how does the stoichiometry N read?
A: Its stoichiometry N is 2.
